Source: the supplement of paper PMC11316812
± gives the standard deviation of the averaged measurements.

How the values were obtained:
MCF7 = experiment: percentage of EdU-negative (G0-arrested) nuclei per well, 72 h; higher = more G0 arrest; settings: reference: sequence is the full UniProt precursor, the tested protein was the secreted form or ectodomain
hTERT-HMEC = experiment: as above; settings: reference: sequence is the full UniProt precursor, the tested protein was the secreted form or ectodomain
[1] = protein concentration 0.0075 µM
[2] = protein concentration 0.0225 µM
[3] = protein concentration 0.0357143 µM
[4] = protein concentration 0.357143 µM
[5] = protein concentration 0.0262857 µM
[6] = protein concentration 0.262857 µM
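Also: secreted proteins added to cultured cells, EdU pulse at the end, nuclei found by Hoechst imaging, EdU status from nuclear versus surrounding ring intensity ratio, PBS as neutral control.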

| Sequence | percentage of EdU-negative (MCF7; [2]) [%] | percentage of EdU-negative (MCF7; protein concentration 0.225 µM) [%] | percentage of EdU-negative (hTERT-HMEC; [2]) [%] | percentage of EdU-negative (hTERT-HMEC; protein concentration 0.225 µM) [%] | other results |
| --- | --- | --- | --- | --- | --- |
| MYLVAGDRGLAGCGHLLVSLLGLLLLLARSGTRALVCLPCDESKCEEPRNCPGSIVQGVCGCCYTCASQRNESCGGTFGIYGTCDRGLRCVIRPPLNGDSLTEYEAGVCEDENWTDDQLLGFKPCNENLIAGCNIINGKCECNTIRTCSNPFEFPSQDMCLSALKRIEEEKPDCSKARCEVQFSPRCPEDSVLIEGYAPPGECCPLPSRCVCNPAGCLRKVCQPGNLNILVSKASGKPGECCDLYECKPVFGVDCRTVECPPVQQTACPPDSYETQVRLTADGCCTLPTRCECLSGLCGFPVCEVGSTPRIVSRGDGTPGKCCDVFECVNDTKPACVFNNVEYYDGDMFRMDNCRFCRCQGGVAICFTAQCGEINCERYYVPEGECCPVCEDPVYPFNNPAGCYANGLILAHGDRWREDDCTFCQCVNGERHCVATVCGQTCTNPVKVPGECCPVCEEPTIITVDPPACGELSNCTLTGKDCINGFKRDHNGCRTCQCINTEELCSERKQGCTLNCPFGFLTDAQNCEICECRPRPKKCRPIICDKYCPLGLLKNKHGCDICRCKKCPELSCSKICPLGFQQDSHGCLICKCREASASAGPPILSGTCLTVDGHHHKNEESWHDGCRECYCLNGREMCALITCPVPACGNPTIHPGQCCPSCADDFVVQKPELSTPSICHAPGGEYFVEGETWNIDSCTQCTCHSGRVLCETEVCPPLLCQNPSRTQDSCCPQCTDQPFRPSLSRNNSVPNYCKNDEGDIFLAAESWKPDVCTSCICIDSVISCFSESCPSVSCERPVLRKGQCCPYCIEDTIPKKVVCHFSGKAYADEERWDLDSCTHCYCLQGQTLCSTVSCPPLPCVEPINVEGSCCPMCPEMYVPEPTNIPIEKTNHRGEVDLEVPLWPTPSENDIVHLPRDMGHLQVDYRDNRLHPSEDSSLDSIASVVVPIIICLSIIIAFLFINQKKQWIPLLCWYRTPTKPSSLNNQLVSVDCKKGTRVQVDSSQRMLRIAEPDARFSGFYSMQKQNHLQADNFYQTV [Q9NZV1] | – | – | – | – | percentage of EdU-negative (MCF7; [1]): 24.3 ± 2.8%; percentage of EdU-negative (MCF7; protein concentration 0.075 µM): 25.9 ± 0.87%; percentage of EdU-negative (hTERT-HMEC; [1]): 4.66 ± 0.59%; percentage of EdU-negative (hTERT-HMEC; protein concentration 0.075 µM): 5.81 ± 1.6% |
| MVSALRGAPLIRVHSSPVSSPSVSGPRRLVSCLSSQSSALSQSGGGSTSAAGIEARSRALRRRWCPAGIMLLALVCLLSCLLPSSEAKLYGRCELARVLHDFGLDGYRGYSLADWVCLAYFTSGFNAAALDYEADGSTNNGIFQINSRRWCSNLTPNVPNVCRMYCSDLLNPNLKDTVICAMKITQEPQGLGYWEAWRHHCQGKDLTEWVDGCDF [Q8IXA5] | 23.7 ± 1.4 | 23.6 ± 2.9 | 4.64 ± 0.051 | 10 ± 1.4 | – |
| MERLVIRMPFSHLSTYSLVWVMAAVVLCTAQVQVVTQDEREQLYTPASLKCSLQNAQEALIVTWQKKKAVSPENMVTFSENHGVVIQPAYKDKINITQLGLQNSTITFWNITLEDEGCYMCLFNTFGFGKISGTACLTVYVQPIVSLHYKFSEDHLNITCSATARPAPMVFWKVPRSGIENSTVTLSHPNGTTSVTSILHIKDPKNQVGKEVICQVLHLGTVTDFKQTVNKGYWFSVPLLLSIVSLVILLVLISILLYWKRHRNQDRGELSQGVQKMT | – | – | – | – | percentage of EdU-negative (MCF7; [3]): 23.6 ± 3.9%; percentage of EdU-negative (MCF7; [4]): 23.5 ± 1%; percentage of EdU-negative (hTERT-HMEC; [3]): 5.34 ± 1.2%; percentage of EdU-negative (hTERT-HMEC; [4]): 5.8 ± 1% |
| MGRPRPRAAKTWMFLLLLGGAWAGHSRAQEDKVLGGHECQPHSQPWQAALFQGQQLLCGGVLVGGNWVLTAAHCKKPKYTVRLGDHSLQNKDGPEQEIPVVQSIPHPCYNSSDVEDHNHDLMLLQLRDQASLGSKVKPISLADHCTQPGQKCTVSGWGTVTSPRENFPDTLNCAEVKIFPQKKCEDAYPGQITDGMVCAGSSKGADTCQGDSGGPLVCDGALQGITSWGSDPCGRSDKPGVYTNICRYLDWIKKIIGSKG | 26.4 ± 2.5 | 24.6 ± 0.69 | 4.99 ± 0.28 | 5.28 ± 0.5 | – |
| MFLKAVVLTLALVAVAGARAEVSADQVATVMWDYFSQLSNNAKEAVEHLQKSELTQQLNALFQDKLGEVNTYAGDLQKKLVPFATELHERLAKDSEKLKEEIGKELEELRARLLPHANEVSQKIGDNLRELQQRLEPYADQLRTQVSTQAEQLRRQLTPYAQRMERVLRENADSLQASLRPHADELKAKIDQNVEELKGRLTPYADEFKVKIDQTVEELRRSLAPYAQDTQEKLNHQLEGLTFQMKKNAEELKARISASAEELRQRLAPLAEDVRGNLRGNTEGLQKSLAELGGHLDQQVEEFRRRVEPYGENFNKALVQQMEQLRQKLGPHAGDVEGHLSFLEKDLRDKVNSFFSTFKEKESQDKTLSLPELEQQQEQQQEQQQEQVQMLAPLES | – | – | – | – | percentage of EdU-negative (MCF7; [5]): 22.7 ± 1.3%; percentage of EdU-negative (MCF7; [6]): 27 ± 1.5%; percentage of EdU-negative (hTERT-HMEC; [5]): 5.7 ± 1%; percentage of EdU-negative (hTERT-HMEC; [6]): 7.022 ± 0.041% |
| MRWCLLLIWAQGLRQAPLASGMMTGTIETTGNISAEKGGSIILQCHLSSTTAQVTQVNWEQQDQLLAICNADLGWHISPSFKDRVAPGPGLGLTLQSLTVNDTGEYFCIYHTYPDGTYTGRIFLEVLESSVAEHGARFQIPLLGAMAATLVVICTAVIVVVALTRKKKALRIHSVEGDLRRKSAGQEEWSPSAPSPPGSCVQAEAAPAGLCGEQRGEDCAELHDYFNVLSYRSLGNCSFFTETG [Q495A1] | 23.6 ± 1.6 | 24.1 ± 1.1 | 4.33 ± 0.49 | 5.59 ± 0.47 | – |
| MKGFTATLFLWTLIFPSCSGGGGGKAWPTHVVCSDSGLEVLYQSCDPLQDFGFSVEKCSKQLKSNINIRFGIILREDIKELFLDLALMSQGSSVLNFSYPICEAALPKFSFCGRRKGEQIYYAGPVNNPEFTIPQGEYQVLLELYTEKRSTVACANATIMCS | 28.5 ± 0.69 | 29.008 ± 0.011 | 4.8 ± 0.29 | 6.1 ± 0.31 | – |
| MLLLLLPLLWGRERAEGQTSKLLTMQSSVTVQEGLCVHVPCSFSYPSHGWIYPGPVVHGYWFREGANTDQDAPVATNNPARAVWEETRDRFHLLGDPHTKNCTLSIRDARRSDAGRYFFRMEKGSIKWNYKHHRLSVNVTALTHRPNILIPGTLESGCPQNLTCSVPWACEQGTPPMISWIGTSVSPLDPSTTRSSVLTLIPQPQDHGTSLTCQVTFPGASVTTNKTVHLNVSYPPQNLTMTVFQGDGTVSTVLGNGSSLSLPEGQSLRLVCAVDAVDSNPPARLSLSWRGLTLCPSQPSNPGVLELPWVHLRDAAEFTCRAQNPLGSQQVYLNVSLQSKATSGVTQGVVGGAGATALVFLSFCVIFVVVRSCRKKSARPAAGVGDTGIEDANAVRGSASQGPLTEPWAEDSPPDQPPPASARSSVGEGELQYASLSFQMVKPWDSRGQEATDTEYSEIKIHR [Q9Y336] | 26.3 ± 0.23 | 30.4 ± 0.4 | 5.01 ± 0.61 | 4.21 ± 0.26 | – |
